Results as given in patent publication US6358897B1, “Alkyl trypsin compositions and methods of use in contact lens cleaning and disinfecting systems” (Alcon Laboratories, Inc., priority 1996, dated 2002).

Experiments:
lysozyme deposits = assay: Cleaning efficacy on lysozyme-deposited contact lenses, fluorescence method; details: for Lysozyme, Total: hydrolysate plus ACN/TFA extract; for Lysozyme, ACN/TFA Extract: lens extract after overnight cleaning at room temperature; for % Cleaning Efficacy: overnight soak at room temperature, no rubbing; for Lysozyme, Hydrolysate: soaking solution after overnight cleaning at room temperature
Procedure: The following example illustrates the cleaning efficacy of a multi-purpose composition (Example 6) of the present invention. The cleaning efficacy was determined using the following protocol. 1. Physiological/Thermal Combination Model Each lens was first soaked in a 5 ml lysozyme solution (native or C14-labeled, 1.0 mg/ml in 0.05M phosphate buffer containing 0.9% sodium chloride, pH 7.4) at 37° C. for 24 hours, then removed to a saline solution (2 ml) and heated at 90° C. for 15 minutes. 2. Cleaning and Assessment of Lysozyme Deposits Each deposited lens was placed in a 5 ml of a test solution and agitated in a rotary shaker at room temperature overnight (usually >12 hours). The compositions tested were: 1) the Example 6 composition (Me-trypsin), 2) 1 drop of Example 3B (except Me-trypsin was replaced by trypsin) in 5 mL of the Example 2B composition and 3) 1 drop of Supraclens® Daily Protein Remover (pancreatin) in 5 mL of the Example 2B composition. After rinsing the lens by dipping three times in three consecutive 40 ml saline solution, the lens was subjected to extraction with 5 ml ACN/TFA solution (acetonitrile/trifluoroacetic acid/water: 500/1/500 v/v) for at least 2 hours. No mechanical rubbing was applied to the cleaning regimen. Both the extract and the soaking solution were then assessed for lysozyme by the protein intrinsic fluorescence method using a fluorescence spectrophotometer (excitation wavelength is 280 nm, emission wavelength is 354 nm), or by a scintillation counter for the C14-lysozyme. The quantification of lysozyme was based on a lysozyme standard curve established using the same vehicle and instrumental setting used for the lens extract and lens soaking solution. The results are show in Tables 9-10.

azocasein [1] = assay: Stability of Et-trypsin and trypsin in a disinfecting composition (Example 2B), azocasein method; assay type: physicochemical; details: 37° C., Example 2B composition, 50 μg/ml
Procedure: Azocasein Method The following solutions are used in this assay: 1) Buffer solution: 0.05 M sodium phosphate buffer containing 0.9% sodium chloride, pH 7.6. 2) Substrate solution: 2 mg/ml azocasein in the buffer solution mentioned above. The assay is initiated by mixing 1 ml of an appropriately diluted (such that the enzyme activity is in the range of standard curve) enzyme composition in phosphate buffer with 2 ml of azocasein substrate solution (2 mg/ml). After incubation at 37° C. for 20 minutes, the mixture is removed from the incubator and 1 ml of trichloroacetic acid to (14% w/v) is added to stop the enzyme reaction. The mixture is vortexed well and allowed to stand at room temperature for 20 minutes. After centrifuging at 2500 rpm (with a Beckman GS-6R Centrifuge) for 15 minutes, the supernatant is filtered with a serum sampler. 2 ml of the clear yellow filtrate is then adjusted to a neutral pH with 2 ml of 0.5 N sodium hydroxide and the absorbance of 440 nm wavelength light is measured with a spectrophotometer. The amount of azocasein hydrolyzed is calculated based on a standard curve of known concentrations of azocasein solution developed under identical conditions. An enzyme activity unit (“AZ U”) is defined as that amount of enzyme which hydrolyzes 1 μg of azocasein substrate/minute at 37° C. The following is an example of the stability of Et-trypsin or Me-trypsin in a disinfecting composition of the present invention as compared to an analogous composition containing trypsin. The enzymes were solubilized in the Example 2B composition. The compositions were stored at 37° or 50° C. for 8 days or 30 hours, respectively. At various time points, enzyme activity was assayed using the azocasein method.

azocasein [2] = assay: Stability of Me-trypsin versus other trypsin analogs in a Part I composition (azocasein method); assay type: physicochemical; details: for % Activity Remaining: 45° C., 50% L-sorbose 1% borax, pH 5.79 (acetylated trypsin pH 7.54)
Procedure: Azocasein Method The following solutions are used in this assay: 1) Buffer solution: 0.05 M sodium phosphate buffer containing 0.9% sodium chloride, pH 7.6. 2) Substrate solution: 2 mg/ml azocasein in the buffer solution mentioned above. The assay is initiated by mixing 1 ml of an appropriately diluted (such that the enzyme activity is in the range of standard curve) enzyme composition in phosphate buffer with 2 ml of azocasein substrate solution (2 mg/ml). After incubation at 37° C. for 20 minutes, the mixture is removed from the incubator and 1 ml of trichloroacetic acid to (14% w/v) is added to stop the enzyme reaction. The mixture is vortexed well and allowed to stand at room temperature for 20 minutes. After centrifuging at 2500 rpm (with a Beckman GS-6R Centrifuge) for 15 minutes, the supernatant is filtered with a serum sampler. 2 ml of the clear yellow filtrate is then adjusted to a neutral pH with 2 ml of 0.5 N sodium hydroxide and the absorbance of 440 nm wavelength light is measured with a spectrophotometer. The amount of azocasein hydrolyzed is calculated based on a standard curve of known concentrations of azocasein solution developed under identical conditions. An enzyme activity unit (“AZ U”) is defined as that amount of enzyme which hydrolyzes 1 μg of azocasein substrate/minute at 37° C. […] The enzymes were solubilized in a Part I composition containing 50% (w/v) L-sorbose 1% (w/v) borax (Na2B4O7.10H2O), at pH 5.79, except the acetylated trypsin composition was at pH 7.54. The compositions were stored at 45° C. for 240 hours. At various time points, enzyme activity was assayed using the azocasein method.

Substance	Lysozyme, Total (lysozyme deposits) [μg/Lens]	Lysozyme, ACN/TFA Extract (lysozyme deposits) [μg/Lens]	% Cleaning Efficacy (lysozyme deposits) [%]	Lysozyme, Hydrolysate (lysozyme deposits) [μg/Lens]	% Activity Remaining (azocasein [1]; 1 Hour) [%]	% Activity Remaining (azocasein [1]; 2 Hours) [%]	% Activity Remaining (azocasein [1]; 4 Hours) [%]	% Activity Remaining (azocasein [1]; 6 Hours) [%]	% Activity Remaining (azocasein [1]; 8 Hours) [%]	% Activity Remaining (azocasein [1]; 1 day) [%]	% Activity Remaining (azocasein [1]; 2 days) [%]	% Activity Remaining (azocasein [1]; 4 days) [%]	% Activity Remaining (azocasein [1]; 8 days) [%]	% Activity Remaining (azocasein [2]; 0 Hr.) [%]	% Activity Remaining (azocasein [2]; 64 Hr.) [%]	% Activity Remaining (azocasein [2]; 96 Hr.) [%]	% Activity Remaining (azocasein [2]; 120 Hr.) [%]	% Activity Remaining (azocasein [2]; 144 Hr.) [%]	% Activity Remaining (azocasein [2]; 240 Hr.) [%]	enzyme stability in a Part I composition over other trypsin related enzyme compositions (azocasein [2]; summary of Table 1)
Trypsin [Native Trypsin, reference compound]	317.40	83.92	73.6	233.45	86.8	80.0	72.7	62.9	56.6	37.6	26.8	17.9	11.2	100.0	62.9	56.8	53.1	49.1	41.4	–
methyl trypsin [Me-Trypsin]	274.35	72.90	73.4	201.45	–	–	–	–	–	–	–	–	–	100.0	89.4	86.3	84.7	82.2	76.1	superior enzyme stability
